B1: Ruminococcus gnavus β-D-glucuronidase (enzyme)
chain: MLEYSELYPIQNEYRMMQSLDGMWKFQFDPEEIGKKSGWENGLPAPVSMPVPSSFADFFTDHKERDYCGDFWYETEFYLPAEWRNKKIWLRFGSITHRGTVYCNGMEITSHEGGFLPVLADISTVAKPGQVNQVVVKINNELNETSLPCGATKILNNGRKLAKPYFDFFNYSGLQRSVWVIALPEESVKDYSVDYELCGTDALVKYEVVTTGEHPVIVRLLDAEGELVAETEGKEGILQVANARLWEVRNAYLYQIVILITDGNGVLDEYREKIGIRTVRIEGTKILLNDRPVYLKGFGKHEDFPILGRGFHWGIVKRDFECLKWTNANCFRTSHYPYAEEWYQFADEEGFLIIDEVPAVGMMRSTRNFVAAGSGNYTYFFEALTVPELLKSHIADTEEMITRDKNHPSVIAWSLFNEPETITDYAYEYFKEVFAAAETYDFQSRPMTGAFEKNSKPELCKCYPLCDFICLNRYYGWYISGGPEIEEAEELFRDEMDRWKAKELNVPFVFTEFGTDTMAGLHKLPSIMWSEEYQKEYLEMNFRVFDSYEFVQGELAWNFADFQTTEGIMRVDGNHKGVFTRDRQPKAAAVVFKDRWEKKNELF
B2: Bacteroides fragilis β-D-glucuronidase (enzyme)
chain: RQDILLNNNWNFRFSHQVQGDTRRVDLPHTWNAQDALAGKIDYKRGIGNYEKALYIRPEWKGKRLFLRFDGVNSIADVFINRKHIGEHRGGYGAFIFEITDLVKYGEKNSVLVRANNGEQLDIMPLVGDFNFYGGIYRDVHLLITDETCISPLDYASPGVYLVQEVVSPQEAKVCAKVNLSNRAADGTAELQVLVTDGTKVICKESRNVSLKQGADILEQLPLLIQKPRLWNGCEDPFMYQVSISLHKDGKQIDSVTQPLGLRYYHTDPDKGFFLNGKHLPLHGVCRHQDRAEVGNALRPQHHEEDVALMREMGVNAIRLAHYPQATYMYDLMDKHGIVTWAEIPFVGPGGYADKGFVDQASFRENGKQQLIELIRQHYNHPSICFWGLFNELKEVGDNPVEYVKELNALAKQEDPTRPTTSASNQDGNLNFITENIAWNRYDGWYGSTPKTLATFLDRTHKKHPELRIGISEYGAGASIYHQQDSLKQPSASGWWHPENWQTYYHMENWKIIAERPFVWGTFVWNMFDFGAAHRTEGDRPGINDKGLVTFDRKVRKDAFYFYKANWNKQEPMIYLAEKRCRLRYQPEQTFMAFTTAPEAELFVNGVSCGKQKADTYSTVVWKNVKLTSGENIIRVTTPGKKPLTDEVTVEYKEDR
notes: β-D-glucuronidase (GUS) of Bacteroides fragilis, codon-optimized gene bought from GenScript, in pET15b; apo structure PDB 3CMG named as search model; Crystallised and soaked with UIFG; Its PDB code is one of 5Z18, 5Z19, 5Z1A, 5Z1B; also called BfGUS

How the values were obtained:
[1] = target: Bifidobacterium dentium β-D-glucuronidase, catalytically inactive mutant E479A (Bifidobacterium dentium); assay: crystal structure; crystals of the purified GUS alone, soaked with UIFG (RgGUS, BfGUS) or with compound 10 (BifdGUS E479A); oligomer as seen in the crystal structures
[2] = target: the molecule itself; assay: as above

Molecule | stoichiometry N [1] | stoichiometry N [2]
Bifidobacterium dentium β-D-glucuronidase, catalytically inactive mutant E479A (enzyme) | 4 | –
B1 | – | 4
B2 | – | 4
